# Experimental data from publication doi:10.1101/2020.03.15.992883 (2020).
# Target: SARS-CoV-2 S receptor-binding domain (RBD) with C-terminal His6 tag (SARS-CoV-2, glycan N343)
# Test: BLI
binder,measurement,value
"CR3022 IgG (human IgG1, kappa) (antibody, V domains shown) VH: EVQLVQSGTEVKKPGESLKISCKGSGYGFITYWIGWVRQMPGKGLEWMGIIYPGDSETRYSPSFQGQVTISADKSINTAYLQWSSLKASDTAIYYCAGGSGISTPMDVWGQGTTVTVSS VL: not shown",Kd,12.4 nM
